In US20110263454A1, “Methods of Identifying Functional Characteristics of Promoters, Transcription Modifying Proteins and Transcription Modulating Agents” (Salk Institute for Biological Studies, priority 2008, published 2011):

Key:
SREBP1c promoter = assay: NHR-promoter luciferase screen, SREBP1c promoter; format: cell-based, mouse; conditions: for Luc. act., normalized to lacZ / Normalized Luc. act., normalized to control: SREBP1c promoter, HR component without or with ligand; for mSREBP1-c promoter reporter activity: transcription factor +/- ligand, control = 1.00
In short: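 Values are luciferase activity normalised to LacZ (transfection control) and to a control lacking NHR or ligand. Read-out at 48 h in CV-1 cells carrying 100 ng promoter-reporter, 50 ng receptor (alone or with RXR) and 50 ng LacZ.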

hIFNg promoter = assay: NHR-promoter luciferase screen, hIFNg promoter; format: cell-based, human; conditions: for Luc. act., normalized to lacZ / Normalized Luc. act., normalized to control: IFNg promoter, HR component without or with ligand; for hIFNg promoter reporter activity: transcription factor +/- ligand, control = 1.00
In short: (§1)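 CV-1 cells were co-transfected with 50 ng NHR (homodimer or NHR/RXR heterodimer), 100 ng promoter-luciferase construct and 50 ng LacZ. Luciferase was normalized to LacZ and to a no-NHR/no-ligand control.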

mUCP1 promoter = assay: NHR-promoter luciferase screen, mUCP1 promoter; format: cell-based, mouse; conditions: for Luc. act., normalized to lacZ / Normalized Luc. act., normalized to control: mUCP1 promoter reporter, co-transfected HR, with or without its ligand; for Normalized Luc. act., normalized to control: relative to control; for luciferase activity normalized to lacZ activity and to a control, mUCP!: mUCP! promoter-luciferase, CV-1 cells, NHR +/- ligand, control = 1.00
In short: as §1

mUCP2 promoter = assay: NHR-promoter luciferase screen, mUCP2 promoter; format: cell-based, mouse; conditions: for Luc. act., normalized to lacZ / Normalized Luc. act., normalized to control: mUCP2 promoter reporter, co-transfected HR, with or without its ligand; for Normalized Luc. act., normalized to control: relative to control; for luciferase activity normalized to lacZ activity and to a control, mUCP2: mUCP2 promoter-luciferase, CV-1 cells, NHR +/- ligand, control = 1.00
In short: as §1

hIRF7 promoter = assay: NHR-promoter luciferase screen, hIRF7 promoter; format: cell-based, human; conditions: for Normalized Luc. act., normalized to control / Luc. act., normalized to lacZ: IRF7 promoter reporter; for Normalized Luc. act., normalized to control: HR without or with its ligand, relative to control; for Luc. act., normalized to lacZ: hormone receptor (HR) without or with its ligand; for hIRF7 promoter reporter activity: transcription factor +/- ligand, control = 1.00
In short: as §1

hPOMC promoter = assay: NHR-promoter luciferase screen, hPOMC promoter; format: cell-based, human; conditions: for Luc. act., normalized to lacZ / Normalized Luc. act., normalized to control: hPOMC promoter, HR/ligand component; for hPOMC promoter reporter activity: transcription factor +/- ligand, control = 1.00
In short: as §1

B1: NR4a3: NR4a3 (NR4A3; NOR1), nuclear hormone receptor cDNA driver (protein, UniProt Q92570 1-626, looked up)
Nuclear receptor subfamily 4 …: MPCVQAQYSPSPPGSSYAAQTYSSEYTTEIMNPDYTKLTMDLGSTEITATATTSLPSISTFVEGYSSNYELKPSCVYQMQRPLIKVEEGRAPSYHHHHHHHHHHHHHHQQQHQQPSIPPASSPEDEVLPSTSMYFKQSPPSTPTTPAFPPQAGALWDEALPSAPGCIAPGPLLDPPMKAVPTVAGARFPLFHFKPSPPHPPAPSPAGGHHLGYDPTAAAALSLPLGAAAAAGSQAAALESHPYGLPLAKRAAPLAFPPLGLTPSPTASSLLGESPSLPSPPSRSSSSGEGTCAVCGDNAACQHYGVRTCEGCKGFFKRTVQKNAKYVCLANKNCPVDKRRRNRCQYCRFQKCLSVGMVKEVVRTDSLKGRRGRLPSKPKSPLQQEPSQPSPPSPPICMMNALVRALTDSTPRDLDYSRYCPTDQAAAGTDAEHVQQFYNLLTASIDVSRSWAEKIPGFTDLPKEDQTLLIESAFLELFVLRLSIRSNTAEDKFVFCNGLVLHRLQCLRGFGEWLDSIKDFSLNLQSLNLDIQALACLSALSMITERHGLKEPKRVEELCNKITSSLKDHQSKGQALEPTESKVLGALVELRKICTLGLQRIFYLKLEDLVSPPSIIDKLFLDTLPF
For B1, the “Luc. act., normalized to lacZ” value (SREBP1c promoter) was 358.6, the “Normalized Luc. act., normalized to control” value (SREBP1c promoter) was 1.1 and the “mSREBP1-c promoter reporter activity” value (SREBP1c promoter) was 1.11. The “Luc. act., normalized to lacZ” value (hIFNg promoter) was 16.4, the “Normalized Luc. act., normalized to control” value (hIFNg promoter) was 1.0 and the “hIFNg promoter reporter activity” value (hIFNg promoter) was 1.03. The “Luc. act., normalized to lacZ” value (mUCP1 promoter) was 3.8, the “Normalized Luc. act., normalized to control” value (mUCP1 promoter) was 0.9 and the “luciferase activity normalized to lacZ activity and to a control, mUCP!” value (shortened to “luciferase activity normalized … mUCP!”) (mUCP1 promoter) was 0.86. The “Luc. act., normalized to lacZ” value (mUCP2 promoter) was 150.1, the “Normalized Luc. act., normalized to control” value (mUCP2 promoter) was 1.4 and the “luciferase activity normalized to lacZ activity and to a control, mUCP2” value (“luciferase activity normalized … mUCP2” below) (mUCP2 promoter) was 1.37. The “Normalized Luc. act., normalized to control” value (hIRF7 promoter) was 0.9, the “Luc. act., normalized to lacZ” value (hIRF7 promoter) was 24.9 and the “hIRF7 promoter reporter activity” value (hIRF7 promoter) was 0.95. For the same molecule, the “Luc. act., normalized to lacZ” value (hPOMC promoter) was 2.7, the “Normalized Luc. act., normalized to control” value (hPOMC promoter) was 0.6 and the “hPOMC promoter reporter activity” value (hPOMC promoter) was 0.63.

B2: GCNF: Germ Cell Nuclear Factor (NR6A1, GCNF1), cDNA driver (protein, UniProt Q15406 1-480, looked up)
Nuclear receptor subfamily 6 …: MERDEPPPSGGGGGGGSAGFLEPPAALPPPPRNGFCQDELAELDPGTISVSDDRAEQRTCLICGDRATGLHYGIISCEGCKGFFKRSICNKRVYRCSRDKNCVMSRKQRNRCQYCRLLKCLQMGMNRKAIREDGMPGGRNKSIGPVQISEEEIERIMSGQEFEEEANHWSNHGDSDHSSPGNRASESNQPSPGSTLSSSRSVELNGFMAFREQYMGMSVPPHYQYIPHLFSYSGHSPLLPQQARSLDPQSYSLIHQLLSAEDLEPLGTPMLIEDGYAVTQAELFALLCRLADELLFRQIAWIKKLPFFCELSIKDYTCLLSSTWQELILLSSLTVYSKQIFGELADVTAKYSPSDEELHRFSDEGMEVIERLIYLYHKFHQLKVSNEEYACMKAINFLNQDIRGLTSASQLEQLNKRYWYICQDFTEYKYTHQPNRFPDLMMCLPEIRYIAGKMVNVPLEQLPLLFKVVLHSCKTSVGKE
With B2 the “Luc. act., normalized to lacZ” value (SREBP1c promoter) was 368.2, the “Normalized Luc. act., normalized to control” value (SREBP1c promoter) was 1.1 and the “mSREBP1-c promoter reporter activity” value (SREBP1c promoter) was 1.14. The “Luc. act., normalized to lacZ” value (hIFNg promoter) was 18.4, the “Normalized Luc. act., normalized to control” value (hIFNg promoter) was 1.2 and the “hIFNg promoter reporter activity” value (hIFNg promoter) was 1.15. For the same molecule, the “Luc. act., normalized to lacZ” value (mUCP1 promoter) was 3.8, the “Normalized Luc. act., normalized to control” value (mUCP1 promoter) was 0.8 and the “luciferase activity normalized … mUCP!” value (mUCP1 promoter) was 0.85. The “Luc. act., normalized to lacZ” value (mUCP2 promoter) was 139.9, the “Normalized Luc. act., normalized to control” value (mUCP2 promoter) was 1.3 and the “luciferase activity normalized … mUCP2” value (mUCP2 promoter) was 1.27. For the same molecule, the “Normalized Luc. act., normalized to control” value (hIRF7 promoter) was 1.1, the “Luc. act., normalized to lacZ” value (hIRF7 promoter) was 28.4 and the “hIRF7 promoter reporter activity” value (hIRF7 promoter) was 1.08. The “Normalized Luc. act., normalized to control” value (hPOMC promoter) was 0.0 and the “hPOMC promoter reporter activity” value (hPOMC promoter) was 0.00.

B3: SHP: Small Heterodimer Partner (NR0B2), cDNA driver (protein, UniProt Q15466 1-257, looked up)
Nuclear receptor subfamily 0 …: MSTSQPGACPCQGAASRPAILYALLSSSLKAVPRPRSRCLCRQHRPVQLCAPHRTCREALDVLAKTVAFLRNLPSFWQLPPQDQRRLLQGCWGPLFLLGLAQDAVTFEVAEAPVPSILKKILLEEPSSSGGSGQLPDRPQPSLAAVQWLQCCLESFWSLELSPKEYACLKGTILFNPDVPGLQAASHIGHLQQEAHWVLCEVLEPWCPAAQGRLTRVLLTASTLKSIPTSLLGDLFFRPIIGDVDIAGLLGDMLLLR
With B3 the “Luc. act., normalized to lacZ” value (SREBP1c promoter) was 350.6, the “Normalized Luc. act., normalized to control” value (SREBP1c promoter) was 1.1 and the “mSREBP1-c promoter reporter activity” value (SREBP1c promoter) was 1.09. The “Luc. act., normalized to lacZ” value (hIFNg promoter) was 16.0, the “Normalized Luc. act., normalized to control” value (hIFNg promoter) was 1.0 and the “hIFNg promoter reporter activity” value (hIFNg promoter) was 1.01. For the same molecule, the “Luc. act., normalized to lacZ” value (mUCP1 promoter) was 4.1, the “Normalized Luc. act., normalized to control” value (mUCP1 promoter) was 0.9 and the “luciferase activity normalized … mUCP!” value (mUCP1 promoter) was 0.93. The “Luc. act., normalized to lacZ” value (mUCP2 promoter) was 164.1, the “Normalized Luc. act., normalized to control” value (mUCP2 promoter) was 1.5 and the “luciferase activity normalized … mUCP2” value (mUCP2 promoter) was 1.49. For the same molecule, the “Normalized Luc. act., normalized to control” value (hIRF7 promoter) was 1.1, the “Luc. act., normalized to lacZ” value (hIRF7 promoter) was 29.1 and the “hIRF7 promoter reporter activity” value (hIRF7 promoter) was 1.10. The “Luc. act., normalized to lacZ” value (hPOMC promoter) was 1.9, the “Normalized Luc. act., normalized to control” value (hPOMC promoter) was 0.4 and the “hPOMC promoter reporter activity” value (hPOMC promoter) was 0.43.

B4: DAX-1: DAX1 (NR0B1), cDNA driver (protein, UniProt P51843 1-470, looked up)
Nuclear receptor subfamily 0 …: MAGENHQWQGSILYNMLMSAKQTRAAPEAPETRLVDQCWGCSCGDEPGVGREGLLGGRNVALLYRCCFCGKDHPRQGSILYSMLTSAKQTYAAPKAPEATLGPCWGCSCGSDPGVGRAGLPGGRPVALLYRCCFCGEDHPRQGSILYSLLTSSKQTHVAPAAPEARPGGAWWDRSYFAQRPGGKEALPGGRATALLYRCCFCGEDHPQQGSTLYCVPTSTNQAQAAPEERPRAPWWDTSSGALRPVALKSPQVVCEAASAGLLKTLRFVKYLPCFQVLPLDQQLVLVRNCWASLLMLELAQDRLQFETVEVSEPSMLQKILTTRRRETGGNEPLPVPTLQHHLAPPAEARKVPSASQVQAIKCFLSKCWSLNISTKEYAYLKGTVLFNPDVPGLQCVKYIQGLQWGTQQILSEHTRMTHQGPHDRFIELNSTLFLLRFINANVIAELFFRPIIGTVSMDDMMLEMLCTKI
With B4 the “Luc. act., normalized to lacZ” value (SREBP1c promoter) was 497.8, the “Normalized Luc. act., normalized to control” value (SREBP1c promoter) was 1.5 and the “mSREBP1-c promoter reporter activity” value (SREBP1c promoter) was 1.55. The “Luc. act., normalized to lacZ” value (hIFNg promoter) was 24.7, the “Normalized Luc. act., normalized to control” value (hIFNg promoter) was 1.6 and the “hIFNg promoter reporter activity” value (hIFNg promoter) was 1.55. The “Luc. act., normalized to lacZ” value (mUCP1 promoter) was 6.2, the “Normalized Luc. act., normalized to control” value (mUCP1 promoter) was 1.4 and the “luciferase activity normalized … mUCP!” value (mUCP1 promoter) was 1.39. The “Luc. act., normalized to lacZ” value (mUCP2 promoter) was 158.6, the “Normalized Luc. act., normalized to control” value (mUCP2 promoter) was 1.4 and the “luciferase activity normalized … mUCP2” value (mUCP2 promoter) was 1.44. For the same molecule, the “Normalized Luc. act., normalized to control” value (hIRF7 promoter) was 1.1, the “Luc. act., normalized to lacZ” value (hIRF7 promoter) was 27.9 and the “hIRF7 promoter reporter activity” value (hIRF7 promoter) was 1.06. For the same molecule, the “Luc. act., normalized to lacZ” value (hPOMC promoter) was 2.7, the “Normalized Luc. act., normalized to control” value (hPOMC promoter) was 0.6 and the “hPOMC promoter reporter activity” value (hPOMC promoter) was 0.63.
